Test results published in the supplement of paper PMC9732359.
± gives the uncertainty stated by the source.

Assay: protein stability index of a GFP-peptide fusion (yeast GPS) (PSI 1-4); higher = more stable; sorted into four equal gates, so the index is relative within each strain
Conditions: san1∆
How it was run: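 Plasmids isolated from each sorting gate were PCR-amplified and Illumina-sequenced, and barcodes assigned the reads to strains. The gates, four of equal size, were set by GFP/Cherry fluorescence ratio on mid-log cultures in leucine-free medium. These cultures were yeast carrying a pooled library of tiled 17-residue yeast protein peptides fused downstream of GFP on a plasmid that also expresses Cherry. The protein stability index is the sum of every gate's read frequency times its gate number.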

Sequence	protein stability index
IEQEKQEQQEQDKKKKS [PRE6]	2.59 ± 0.077
IESQMRDLILTEYGRKY [PRP8]	1.98 ± 0.098
IETEFLLFTVKLKGLMK [IRR1]	2.98 ± 0.12

Same assay, conditions: ubr1∆

Sequence	protein stability index
GTFKSTLDREYITLKAT [QCR2]	1.49 ± 0.047
GTGLQSYLEERERQVNE [RPC53]	3.25 ± 0.13
GTLDINPDDDYGFKQEI [FAS1]	3.04 ± 0.086
GTLGEIFIRCNNVLYIR [SMX3]	3.26 ± 0.1
GTSLKVAPVSEIVNMVP [SIR2]	2.37 ± 0.058
GTTATGTGLFGQQTAQP [YGR119C/NUP57]	3 ± 0.14
GTWSAKEAVFKSLGVKS [FAS2]	2.88 ± 0.094
GVDAMSVDDLKKLNKNK [RPL1A]	3.73 ± 0.11
GVHDGEVEPALLLLQDY [RPN1]	2.44 ± 0.24
GVHTGQFIYAGKKASLN [RPL2A]	3.4 ± 0.12
GVIALGQFVTLGCTLVT [RMP1]	1.5 ± 0.12
GVLLRDAHGVTQARVIT [RPS13]	2.27 ± 0.082
GVTSLGIKATNGVVIAT [PRE8]	3.28 ± 0.29
GVTSLIKNLGLPSDRCS [RPP1]	1.69 ± 0.062
GWYHSHPGFGCWLSSVD [RPN11]	2.64 ± 0.12
HAGTAIGIMASDGIVLA [PRE9]	2.42 ± 0.14
HALYLAPSGIRMHLAPA [SSN2]	2.04 ± 0.061
HDELDMNECIADQDMED [ESC2]	2.97 ± 0.074
HDFIKGLIMLNLQPASV [NUT1]	1.24 ± 0.065
HDGGFDLVHIKDSLDNT [RPS4A]	2.33 ± 0.04
HELITNIGETAGVVQDI [RPB9]	3.22 ± 0.057
HFELGGEKKQKGQALQF [RPL42A]	2.76 ± 0.13
HFVQEEPLAFYLEESFT [RGR1]	2.69 ± 0.031
HGGGNHQHIGKASTISR [RPL2A]	3.11 ± 0.04
HGIVFQHPFPLAHSQHR [SSN2]	2.38 ± 0.078

Sequence	protein stability index
HGMTLRESFEDNVVRFL [RPO21]	3.17 ± 0.078
HIGHSALKGPVRDKLDE [DPB4]	3.2 ± 0.083
HIILDTISECNLYDDVK [MED1]	3 ± 0.11
HILFQNNPDMMIQPPQQ [ROX3]	3.02 ± 0.046
HIRRMVPLAMGIVSVSD [RPN1]	1.57 ± 0.044
HISKIIGLDTQQVEGKL [RPN6]	2.86 ± 0.059
HKHALHGTAKALAAAKK [RPL29]	2.323 ± 0.018
HKYVLTLQLYMVHREFL [RGR1]	2.1 ± 0.034
HLGLDDPQDVFNYNIFM [SIR2]	3.26 ± 0.078
HLHDAVFVNTGLQNVRK [SWP82]	2.73 ± 0.088
HLIPNEIKGASETPLQK [RPN4]	1.91 ± 0.11
HLRYQPDGVVVHRDDPA [SNF6]	3.28 ± 0.08
HLSSKTGLHFGRLSLRS [QCR10]	3.14 ± 0.12
HMADAKIMPKDILQITK [SIR4]	2.95 ± 0.063
HMATALQIAQLTLKHRQ [RPN10]	1.62 ± 0.068
HMDYDGNIVKEFENKFQ [YMR129W/POM152]	3.22 ± 0.055
HNGAPHHAIEEAESLLQ [RPO21]	3 ± 0.088
HPAYLFKGLETPLKARQ [YLR018C/POM34]	2.08 ± 0.043
HPPDFKRMLLSLSEFAR [SNF2]	1.27 ± 0.023
HPTVVDAIDNSDEITQD [IRR1]	3.15 ± 0.052
HQSELIIKQTVHPIPDV [YMR129W/POM152]	2.27 ± 0.061
HRDAYSGGSVNLYHVTE [PRE2]	3.03 ± 0.073
HRVAENWRKQKGIDSVV [RPL32]	2.25 ± 0.18
HRWGTKKLPRKTHRGLR [RPL3]	3.34 ± 0.061
HSKRELDSGDDQPQSSE [BRR2]	3.19 ± 0.051

Sequence	protein stability index
HSNESSNETIGEIQLLF [IRR1]	2.92 ± 0.084
HSSSVFKGTDFVHSVKK [SRB4]	2.99 ± 0.056
HTATDIYQTLIALNLDT [SNF2]	1.93 ± 0.024
HTDVSSSLEARYFFYLS [RPN3]	2.85 ± 0.076
HTLDIINVLTDQNPIQV [RPS5]	1.86 ± 0.055
HTSSSDGNNEIFTCQIM [RPN4]	2.86 ± 0.086
HVIQIPLNKPLLTEELA [TAF14]	2.32 ± 0.039
HWPLNWYLILSIISSKT [RGR1]	1.18 ± 0.067
HYLFNTFTFTAHMGVLL [SWP82]	1.51 ± 0.024
IAAERAARKAANKEKRA [RPL7B]	3.3 ± 0.17
IAAMVAQKCGWTIPHKK [SIR2]	2.35 ± 0.051
IAARRTGLLRGSQKTQD [RPL2A]	2.68 ± 0.079
IADSTHVKRITKIAQSQ [ECM29]	1.38 ± 0.044
IAEGQKKFATVPTGGAS [RPP2B]	2.53 ± 0.04
IAFASNYGIVELDPECQ [RRP43]	2.53 ± 0.08
IAIIKDTSDIIVDPTAE [RRP46]	1.61 ± 0.046
IAKATKEFKGIKVTVQL [RPL12A]	3.35 ± 0.18
IAKFERSEEEVTKLNVL [YIL149C/MLP2]	3.4 ± 0.069
IAKTFTVDVSSPTENGV [RPL22A]	2.99 ± 0.077
IALNLASKKFGKICLIL [SSN2]	3.12 ± 0.061
IAVLIELLEERFQDSNP [YCS4]	2.82 ± 0.069
ICEDPETAKKITFHPKI [SMC2]	2.9 ± 0.077
IDAALDKQYRTAVATLL [SMC3]	2.82 ± 0.081
IDEDKLYPSFKPIYKDT [SSN2]	3.17 ± 0.092
IDESLFNLLILSLNKRI [YCG1]	2.15 ± 0.033

Sequence	protein stability index
IDEVFSWYLNTFDGIRM [GRR1]	1.88 ± 0.039
IDFAPTSPFGGARPGRV [RPS9A]	2.74 ± 0.05
IDFFKTDDSFEDKVFAS [BRN1]	2.89 ± 0.06
IDKNHGFERLTVNEPQM [SRB7]	3.02 ± 0.052
IDLCHDFPHLTPKLQTQ [YCS4]	2.49 ± 0.035
IDLLTFQYGSRLPTFLK [RPP1]	1.57 ± 0.047
IDLLWKGKTPKNAAESS [PRP28]	3.14 ± 0.13
IDNSPQAISYLHKLQRM [GRR1]	2.69 ± 0.039
IDSVEVETNTTVLADEF [RPB3]	3.16 ± 0.037
IDVDMDASPAPSNESCS [SRB5]	2.32 ± 0.049
IEAEEAEEIGVEHLLRD [RPN8]	3.23 ± 0.068
IEANVTVKTSDDYVLRI [RPS1A]	2.726 ± 0.027
IEDRDFLVRYACEPTAE [SIR3]	3.08 ± 0.069
IEEQGWGGFPLDISVFL [TAF14]	3.33 ± 0.047
IEIMGILMGFTLKDNIV [RRI1]	2.55 ± 0.083
IEKFEQVPDSLDDQIFV [RPN6]	3.27 ± 0.079
IEKVDRENMICKIDFQK [RRI2]	3.15 ± 0.065
IELSVPDRQSMDSRVAH [SRB5]	3.16 ± 0.089
IEQCKHPLHELIIQYPP [ISW2]	3.1 ± 0.068
IEQEKQEQQEQDKKKKS [PRE6]	1.59 ± 0.049
IESQMRDLILTEYGRKY [PRP8]	3.03 ± 0.092
IETEFLLFTVKLKGLMK [IRR1]	3.28 ± 0.12
